Results taken from US20030073629A1, “Omi and domains thereof that disrupt IAP-caspase interaction” (priority 2001, published 2003).

Key:
[1] = system: GST-BIR1, 2 fusion protein; experiment: Interaction of purified recombinant proteins with GST-BIR1, 2 fusion protein; assay type: binding, human; settings: purified C-terminal His6-tagged recombinant protein
Description: (§1) FIGS. 7A and 7B are scanned images of Coomassie stained gels representing SDS-PAGE analysis of purified C-terminal His6-tagged recombinant wild type mature Omi (WT), Omi-ΔAVPS, Omi-S306A, and mature Smac (7A) and recombinant Omi and Smac proteins with GST-BIR1, GST-BIR2, GST-BIR3, or GST-BIR3-E314S fusion proteins (7B).
(§2) To determine whether a recombinant Omi lacking the first 133 residues (mature Omi) can interact with the GST-BIR3 fusion protein, this protein was expressed with a C-terminal His6 tag in bacteria and purified to apparent homogeneity (see FIG. 7B). […] FIGS. 7A and 7B show scanned images of Coomassie stained gels representing SDS-PAGE analysis of purified C-terminal His6-tagged recombinant wild type mature Omi (WT), Omi-ΔAVPS, Omi-S306A, and mature Smac (FIG. 7A) and recombinant Omi and Smac proteins with GST-BIR1, 2, GST-BIR3 or GST-BIR3-E314S fusion proteins (FIG. 7B).

[2] = target: T1, GST-BIR3-E314S mutant (Homo sapiens, UniProt P98170, E314S); experiment: Interaction of purified recombinant proteins with GST-BIR3-E314S mutant; assay type: binding; settings: purified C-terminal His6-tagged recombinant protein
T1 construct: Omi associates directly with the BIR3 domain of XIAP
T1 sequence (P98170 238-358 E314S limits assumed): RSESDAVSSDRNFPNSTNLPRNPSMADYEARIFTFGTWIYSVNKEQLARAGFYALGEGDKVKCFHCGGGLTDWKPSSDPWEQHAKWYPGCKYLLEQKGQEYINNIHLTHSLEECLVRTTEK
Description: as §1
To confirm that Omi associates directly with the BIR3 domain of XIAP but not with the Smac protein, Smac was depleted from the 293 extracts using a Smac monoclonal antibody. Specifically, 293 cellular extracts were either left untreated (undepleted lane of FIG. 4) or depleted with a Smac antibody (lane depleted of FIG. 4). The undepleted and depleted extracts were incubated with the GST-BIR3 protein and the bound proteins were eluted as above. The eluates were then analyzed by far-western blotting with ^35S-XIAP and by western blotting with the Smac antibody as described above (see FIG. 4, left and right panels, respectively). […] The last lane of each panel in FIG. 4 represents the 293 cellular extracts that were bound to the E314S mutant GST-BIR3 fusion protein. […] The asterisk in FIG. 4 indicates non-specific bands and the arrow indicates the IgG band. […]

[3] = target: T2, GST-BIR3 fusion protein (BIR3 domain of human XIAP) (Homo sapiens, UniProt P98170); experiment: Interaction of purified recombinant proteins with GST-BIR3 fusion protein (SDS-PAGE, Coomassie); assay type: binding; settings: purified C-terminal His6-tagged recombinant protein; wild type GST-BIR3
T2 construct: Omi associates directly with the BIR3 domain of XIAP
T2 sequence (P98170 238-358 limits assumed): as the sequence (P98170 238-358 E314S limits assumed) above, with S77E counted along it
Description: as §1, §2

[4] = target: T3, caspase-9 interaction with XIAP (procaspase-3 activation) (Homo sapiens, UniProt P98170); experiment: Procaspase-3 activation in XIAP-containing S100 extracts stimulated with cytochrome c and dATP; assay type: biochemical; settings: S100 extracts with purified XIAP, cytochrome c plus dATP; 10, 50 or 300 ng protein
T3 construct: caspase-9: endogenous in 293T/HEK293 S100 extract
T3 sequence (P98170 whole entry): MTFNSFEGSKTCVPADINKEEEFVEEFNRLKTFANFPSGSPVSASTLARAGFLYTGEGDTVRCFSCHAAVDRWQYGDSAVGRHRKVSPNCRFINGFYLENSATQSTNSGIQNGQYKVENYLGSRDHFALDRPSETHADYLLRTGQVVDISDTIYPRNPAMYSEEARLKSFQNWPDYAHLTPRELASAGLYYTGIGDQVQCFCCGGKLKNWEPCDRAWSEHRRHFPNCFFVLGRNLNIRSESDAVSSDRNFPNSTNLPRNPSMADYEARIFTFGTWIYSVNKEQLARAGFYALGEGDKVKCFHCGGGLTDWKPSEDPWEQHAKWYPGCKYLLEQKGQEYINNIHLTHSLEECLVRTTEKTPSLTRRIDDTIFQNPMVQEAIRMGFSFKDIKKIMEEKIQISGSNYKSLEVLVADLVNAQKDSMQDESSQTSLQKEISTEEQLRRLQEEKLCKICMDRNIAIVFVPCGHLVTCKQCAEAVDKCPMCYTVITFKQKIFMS
Experimental: FIG. 17 is a scanned image of an autoradiogram, representing SDS-PAGE analysis of ^35S-labeled procaspase-3 following stimulation of 293T S100 extracts (20μg) mixed with purified XIAP (50 ng) with cytochrome c (0.5 μg) plus dATP (1 mM), in the presence of increasing amounts (10, 50, or 300 ng, respectively) of purified mature WT Omi, Omi-ΔAVPS, Omi-S306A, or mature Smac in 10 μl reaction volume. In the fifth lane, S100 extracts were incubated with. 300 ng of WT Omi without XIAP.
Next, it was determined whether Omi, like Smac, promotes caspase-9 activity in HEK293 S100 extracts in the presence of XIAP. To measure the caspase-9 activity in these extracts, ^35S-labeled procaspase-3 was added to the S100 extracts and stimulated the extracts with cytochrome c and dATP. […] These observations indicate that Omi, like Smac, is able to disrupt the interaction of caspase-9 with XIAP in the S100 extracts to promote procaspase-3 activation.

[5] = target: T4, endogenous XIAP (Homo sapiens, UniProt P98170); experiment: Co-immunoprecipitation with endogenous XIAP in transfected 293T cells; assay type: cell-based; settings: 293T cells transfected with C-terminal Flag-tagged Omi precursors, XIAP western blot
T4 construct: endogenous in cells; host or cells: 293T cells
T4 sequence (P98170 whole entry): as above
Description: FIG. 9 is a scanned image of a blot representing western blot analysis using an XIAP monoclonal antibody (upper panel) or Flag antibody (middle panel) of 293T cells transfected with constructs encoding C-terminal Flag-tagged Omi wild type or mutant precursors and immunoprecipitated with Flag antibody. The lower panel is a scanned image of a blot representing total extracts probed with the XIAP antibody. Arrows indicate IgG bands.

[6] = system: Hela cells; experiment: Staurosporine-induced apoptosis of Hela cells transfected with Omi precursor; assay type: cell-based, human; settings: for apoptosis potentiation compared to vector-transfected cells: staurosporine, indicated or higher doses
Experimental: FIG. 18 is a bar graphic representation of the percentages of GFP-positive apoptotic HeLa cells following treatment with the indicated doses of staurosporine for five hours, 24 hours after transfection. The Hela cells were transfected with an empty vector or a construct encoding a C-terminally Flag-tagged Omi precursor together with pEGFP-N1 plasmid (Clontech) at a 4:1 ratio. The AVPS motif in the […] Omi precursor is mutated to a VVAS sequence (SEQ ID NO:10) to prevent binding to IAPs. The Insert represents the expression of mature Omi wild type and Omi S306A mutant in the transfected cells as determined by immunoblotting with Flag antibody.
To determine whether release of Omi can potentiate apoptosis, human Hela cells were transfected with the Omi precursor, and the cells were stimulated with different doses of staurosporine.

Chain of GST-BIR1, 2 fusion protein (P98170 124-240 limits assumed): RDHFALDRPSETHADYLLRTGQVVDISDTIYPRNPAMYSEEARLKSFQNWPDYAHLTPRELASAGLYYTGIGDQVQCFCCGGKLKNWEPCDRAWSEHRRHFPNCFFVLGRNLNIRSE

Row | Molecule | interaction with GST-BIR3 fusion protein [3] | promotion of procaspase-3 activation [4] | apoptosis potentiation compared to vector-transfected cells ([6]; five hours) | other results
1 | Smac: mitochondrial IAP-binding protein; recombinant mature form with C-terminal His6 tag (protein, UniProt Q9NR28 22-239, looked up, C-terminal His6 tag) Diablo IAP-binding …: LCVPVVANFKKRCFSELIRPWHKTVTIGFGVTLCAVPIAQKSEPHSLSSEALMRRAVSLVTDSTSTFLSQTTYALIEAITEYTKAVYTLTSLYRQYTSLLGKMNSEEEDEVWQVIIGARAEMTSKHQEYLKLETTWMTAVGLSEMAAEAAYQTGADQASITARNHIQLVKLQVEEVHQLSRKAETKLAEAQIEELRQKTQEEGEERAESEQEAYLRED | able to interact equally with the wild type GST-BIR3 protein | – | – | interaction with GST-BIR1, 2 fusion protein [1]: able to interact with the GST-BIR1, 2 fusion protein; interaction with GST-BIR3-E314S mutant [2]: not with the GST-BIR3-E314S mutant
2 | Omi-S306A: recombinant mature Omi with active site Ser306 mutated to Ala, C-terminal His6 tag (protein) AVPSPPPASPRSQYNFIADVVEKTAPAVVYIEILDRHPFLGREVPISNGSGFVVAADGLIVTNAHVVADRRRVRVRLLSGDTYEAVVTAVDPVADIATLRIQTKEPLPTLPLGRSADVRQGEFVVAMGSPFALQNTITSGIVSSAQRPARDLGLPQTNVEYIQTDAAIDFGNAGGPLVNLDGEVIGVNTMKVTAGISFAIPSDRLREFLHRGEKKNSSSGISGSQRRYIGVMMLTLSPSILAELQLREPSFPDVQHGVLIHKVILGSPAHRAGLRPGDVILAIGEQMVQNAEDVYEAVRTQSQLAVQIRRGRETLTLYVTPEVTEHHHHHH | did not affect its interaction with GST-BIR3 | able to promote procaspase-3 activation in the XIAP-containing S100 extracts almost to the same extent as Smac | – | –
3 | Omi-ΔAVPS: recombinant mature Omi with deletion of the AVPS motif, C-terminal His6 tag (protein) PPPASPRSQYNFIADVVEKTAPAVVYIEILDRHPFLGREVPISNGSGFVVAADGLIVTNAHVVADRRRVRVRLLSGDTYEAVVTAVDPVADIATLRIQTKEPLPTLPLGRSADVRQGEFVVAMGSPFALQNTITSGIVSSAQRPARDLGLPQTNVEYIQTDAAIDFGNSGGPLVNLDGEVIGVNTMKVTAGISFAIPSDRLREFLHRGEKKNSSSGISGSQRRYIGVMMLTLSPSILAELQLREPSFPDVQHGVLIHKVILGSPAHRAGLRPGDVILAIGEQMVQNAEDVYEAVRTQSQLAVQIRRGRETLTLYVTPEVTEHHHHHH | completely abolished its interaction with the GST-BIR3 fusion protein | abolished its caspase-promoting activity | – | –
4 | AAAS: C-terminal Flag-tagged Omi precursor mutant with the AVPS motif mutated to AAAS (protein, UniProt O43464 1-458, looked up, variant V135A P136A, full-length C-terminal Flag tag) MAAPRAGRGAGWSLRAWRALGGIRWGRRPRLTPDLRALLTSGTSDPRARVTYGTPSLWARLSVGVTEPRACLTSGTPGPRAQLTAVTPDTRTREASENSGTRSRAWLAVALGAGGAVLLLLWGGGRGPPAVLAAAASPPPASPRSQYNFIADVVEKTAPAVVYIEILDRHPFLGREVPISNGSGFVVAADGLIVTNAHVVADRRRVRVRLLSGDTYEAVVTAVDPVADIATLRIQTKEPLPTLPLGRSADVRQGEFVVAMGSPFALQNTITSGIVSSAQRPARDLGLPQTNVEYIQTDAAIDFGNSGGPLVNLDGEVIGVNTMKVTAGISFAIPSDRLREFLHRGEKKNSSSGISGSQRRYIGVMMLTLSPSILAELQLREPSFPDVQHGVLIHKVILGSPAHRAGLRPGDVILAIGEQMVQNAEDVYEAVRTQSQLAVQIRRGRETLTLYVTPEVTE | – | – | – | interaction with endogenous XIAP in vivo [5]: abolished its interaction with endogenous XIAP
5 | active site Omi precursor mutant: S306A Omi precursor with mutant VVAS sequence instead of the AVPS motif (protein, UniProt O43464 1-458, looked up, variant A134V P136A S306A, full-length) MAAPRAGRGAGWSLRAWRALGGIRWGRRPRLTPDLRALLTSGTSDPRARVTYGTPSLWARLSVGVTEPRACLTSGTPGPRAQLTAVTPDTRTREASENSGTRSRAWLAVALGAGGAVLLLLWGGGRGPPAVLAVVASPPPASPRSQYNFIADVVEKTAPAVVYIEILDRHPFLGREVPISNGSGFVVAADGLIVTNAHVVADRRRVRVRLLSGDTYEAVVTAVDPVADIATLRIQTKEPLPTLPLGRSADVRQGEFVVAMGSPFALQNTITSGIVSSAQRPARDLGLPQTNVEYIQTDAAIDFGNAGGPLVNLDGEVIGVNTMKVTAGISFAIPSDRLREFLHRGEKKNSSSGISGSQRRYIGVMMLTLSPSILAELQLREPSFPDVQHGVLIHKVILGSPAHRAGLRPGDVILAIGEQMVQNAEDVYEAVRTQSQLAVQIRRGRETLTLYVTPEVTE | – | – | No apoptosis potentiation was observed | –
6 | Omi precursor: C-terminally Flag-tagged full-length Omi precursor (SEQ ID NO:1) expressed from a transfected construct (protein, listed as Homo sapiens, C-terminal Flag tag) MAAPRAGRGAGWSLRAWRALGGIRWGRRPRLTPDLRALLTSGTSDPRARVTYGTPSLWARLSVGVTEPRACLTSGTPGPRAQLTAVTPDTRTREASENSGTRSRAWLAVALGAGGAVLLLLWGGGRGPPAVLAAVPSPPPASPRSQYNFIADVVEKTAPAVVYIEILDRHPFLGREVPISNGSGFVVAADGLIVTNAHVVADRRRVRVRLLSGDTYEAVVTAVDPVADIATLRIQTKEPLPTLPLGRSADVRQGEFVVAMGSPFALQNTITSGIVSSAQRPARDLGLPQTNVEYIQTDAAIDFGNSGGPLVNLDGEVIGVNTMKVTAGISFAIPSDRLREFLHRGEKKNSSSGISGSQRRYIGVMMLTLSPSILAELQLREPSFPDVQHGVLIHKVILGSPAHRAGLRPGDVILAIGEQMVQNAEDVYEAVRTQSQLAVQIRRGRETLTLYVTPEVTE | – | – | increased apoptosis was observed | transfected cells showing signs of apoptosis ([6]; 500 nM staurosporine, five hours, 24 hours after transfection, vector transfected cells ~20%): ~43%; induction of apoptosis ([6]; transiently expressed, absence of staurosporine): did not induce apoptosis
